Measurements: patent US20080026996A1, “Selective Vpac2 Receptor Reptide Agonists” (ELI LILLY AND COMPANY, priority 2004, published 2008)
Where no end group is shown, it is not given here. [ ]: non-standard residue; d: D form. The star is where a group is joined. Hexanoyl = CCCCCC(=O)*; Aib = CC(C)(N)C(=O)O

T1: human VPAC2 receptor (human, UniProt P41587 24-438)
T1 sequence (looked up): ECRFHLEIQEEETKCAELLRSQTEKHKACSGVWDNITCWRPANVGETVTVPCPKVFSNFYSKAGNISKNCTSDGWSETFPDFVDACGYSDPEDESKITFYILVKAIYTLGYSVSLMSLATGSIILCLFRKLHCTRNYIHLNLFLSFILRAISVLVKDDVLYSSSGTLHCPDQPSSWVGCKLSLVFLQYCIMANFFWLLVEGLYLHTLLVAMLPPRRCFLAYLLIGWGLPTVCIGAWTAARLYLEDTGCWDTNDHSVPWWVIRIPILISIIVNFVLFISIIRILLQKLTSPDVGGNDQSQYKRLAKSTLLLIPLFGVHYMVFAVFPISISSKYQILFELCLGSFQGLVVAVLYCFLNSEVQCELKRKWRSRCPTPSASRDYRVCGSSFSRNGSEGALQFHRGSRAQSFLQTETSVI

T2: rat VPAC1 receptor (rat, UniProt P30083 31-459)
T2 sequence (looked up): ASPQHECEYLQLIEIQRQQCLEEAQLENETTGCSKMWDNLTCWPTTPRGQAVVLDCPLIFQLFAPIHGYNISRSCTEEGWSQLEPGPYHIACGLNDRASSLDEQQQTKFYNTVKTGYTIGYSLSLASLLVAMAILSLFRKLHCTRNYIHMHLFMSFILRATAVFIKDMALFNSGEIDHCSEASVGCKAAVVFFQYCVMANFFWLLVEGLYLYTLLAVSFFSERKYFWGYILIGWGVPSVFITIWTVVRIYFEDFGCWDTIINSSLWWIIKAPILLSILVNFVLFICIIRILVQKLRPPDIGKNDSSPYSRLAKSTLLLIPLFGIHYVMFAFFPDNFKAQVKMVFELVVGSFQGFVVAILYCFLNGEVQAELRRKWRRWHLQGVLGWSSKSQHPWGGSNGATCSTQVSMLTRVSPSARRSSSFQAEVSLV

T3: rat PAC1 receptor (rat, UniProt P32215 20-523)
T3 sequence (looked up): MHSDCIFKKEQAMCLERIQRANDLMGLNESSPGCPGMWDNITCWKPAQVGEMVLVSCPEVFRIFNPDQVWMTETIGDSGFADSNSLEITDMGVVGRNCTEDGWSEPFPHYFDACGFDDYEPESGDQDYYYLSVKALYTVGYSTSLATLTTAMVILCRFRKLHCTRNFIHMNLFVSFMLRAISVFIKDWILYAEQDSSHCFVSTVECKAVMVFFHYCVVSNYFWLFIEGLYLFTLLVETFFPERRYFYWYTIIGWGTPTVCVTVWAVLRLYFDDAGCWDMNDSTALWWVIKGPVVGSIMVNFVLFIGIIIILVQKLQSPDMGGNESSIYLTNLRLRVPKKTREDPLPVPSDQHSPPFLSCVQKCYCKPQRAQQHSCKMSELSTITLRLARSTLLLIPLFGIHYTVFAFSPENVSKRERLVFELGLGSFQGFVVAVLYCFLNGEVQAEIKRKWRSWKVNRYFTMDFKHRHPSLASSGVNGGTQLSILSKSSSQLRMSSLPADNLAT

T4: rat VPAC2 receptor (rat, UniProt P35000 23-437)
T4 sequence (looked up): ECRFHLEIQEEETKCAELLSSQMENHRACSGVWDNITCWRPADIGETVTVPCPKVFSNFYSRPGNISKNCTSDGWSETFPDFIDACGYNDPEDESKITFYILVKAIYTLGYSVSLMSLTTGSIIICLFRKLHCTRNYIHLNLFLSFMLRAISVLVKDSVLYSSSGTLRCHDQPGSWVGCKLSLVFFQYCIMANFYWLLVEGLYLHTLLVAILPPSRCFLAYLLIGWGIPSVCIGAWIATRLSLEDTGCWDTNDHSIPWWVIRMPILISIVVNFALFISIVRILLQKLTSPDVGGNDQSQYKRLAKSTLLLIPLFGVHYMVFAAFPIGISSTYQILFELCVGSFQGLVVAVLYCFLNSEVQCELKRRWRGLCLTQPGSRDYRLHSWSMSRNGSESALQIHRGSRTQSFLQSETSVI

T5: human PAC1 receptor (human, UniProt P41586 21-468)
T5 sequence (looked up): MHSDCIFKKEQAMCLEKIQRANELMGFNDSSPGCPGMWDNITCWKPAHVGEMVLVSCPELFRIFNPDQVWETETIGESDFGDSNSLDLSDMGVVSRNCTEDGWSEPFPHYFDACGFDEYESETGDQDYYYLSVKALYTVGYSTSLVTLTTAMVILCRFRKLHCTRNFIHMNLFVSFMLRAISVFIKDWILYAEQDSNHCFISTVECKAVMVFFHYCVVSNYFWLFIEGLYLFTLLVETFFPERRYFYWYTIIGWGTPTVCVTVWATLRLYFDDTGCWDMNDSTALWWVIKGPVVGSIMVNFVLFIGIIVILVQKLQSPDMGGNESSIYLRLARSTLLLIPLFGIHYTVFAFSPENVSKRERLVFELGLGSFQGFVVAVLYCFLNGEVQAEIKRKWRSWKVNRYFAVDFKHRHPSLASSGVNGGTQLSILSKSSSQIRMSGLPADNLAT

T6: human VPAC1 receptor (human, UniProt P32241 31-457)
T6 sequence (looked up): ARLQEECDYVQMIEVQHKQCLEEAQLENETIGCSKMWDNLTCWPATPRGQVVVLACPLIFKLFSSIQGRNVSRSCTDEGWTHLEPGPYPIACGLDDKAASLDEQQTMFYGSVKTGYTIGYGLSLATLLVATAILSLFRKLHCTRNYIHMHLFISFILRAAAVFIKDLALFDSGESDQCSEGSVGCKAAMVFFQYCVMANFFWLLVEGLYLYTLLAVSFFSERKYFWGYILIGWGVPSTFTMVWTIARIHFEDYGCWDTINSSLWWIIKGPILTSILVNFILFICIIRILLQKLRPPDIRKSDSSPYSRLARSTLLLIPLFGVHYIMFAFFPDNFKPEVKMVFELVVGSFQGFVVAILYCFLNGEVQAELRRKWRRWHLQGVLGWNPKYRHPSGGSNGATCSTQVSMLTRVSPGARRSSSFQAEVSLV

T7: human VPAC2 receptor (human), P41587
T7 chain: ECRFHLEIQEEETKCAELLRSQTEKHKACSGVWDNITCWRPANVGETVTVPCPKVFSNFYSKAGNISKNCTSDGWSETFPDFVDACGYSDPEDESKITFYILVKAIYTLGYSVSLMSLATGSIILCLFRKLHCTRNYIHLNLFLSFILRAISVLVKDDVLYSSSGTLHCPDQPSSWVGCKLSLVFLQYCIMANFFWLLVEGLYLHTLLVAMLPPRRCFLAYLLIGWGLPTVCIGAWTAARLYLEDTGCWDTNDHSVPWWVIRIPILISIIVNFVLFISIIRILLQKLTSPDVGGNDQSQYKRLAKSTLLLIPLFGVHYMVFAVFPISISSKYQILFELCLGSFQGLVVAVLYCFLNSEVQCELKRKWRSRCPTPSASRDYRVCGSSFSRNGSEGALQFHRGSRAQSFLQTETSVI


Legend:
human VPAC2 receptor = biological target: T1, human VPAC2 receptor; test: cell-based or functional assay
rat VPAC1 receptor [1] = biological target: T2, rat VPAC1 receptor; test: cell-based or functional assay
rat PAC1 receptor = biological target: T3, rat PAC1 receptor; test: cell-based or functional assay
rat VPAC2 receptor [2] = biological target: T4, rat VPAC2 receptor; test: cell-based or functional assay
rat VPAC1 receptor [3] = biological target: T2, rat VPAC1 receptor; test: cell-based or functional assay; remark: listed apart in the source
rat VPAC2 receptor [4] = biological target: T4, rat VPAC2 receptor; test: IC50 on rat VPAC1 over IC50 on rat VPAC2
Description: Each assay is done in duplicate and performed on two different membrane preparations.
TABLE 3 Binding data are expressed as the IC₅₀ values of tracer inhibition. A different reference compound is used as the tracer for the VPAC1 receptor and for the VPAC2 receptor. The last column represents the ratio between the IC₅₀ values on VPAC1 and VPAC2 receptor and is, thus, an index of selectivity for a receptor subtype. […] The values are given with the standard error.

human PAC1 receptor = biological target: T5, human PAC1 receptor; test: cell-based or functional assay
human VPAC1 receptor = biological target: T6, human VPAC1 receptor; test: cell-based or functional assay
[5] = biological target: T7, human VPAC2 receptor (human), P41587; test: cell-based or functional assay
rat VPAC2 receptor [6] = biological target: T4, rat VPAC2 receptor; test: cell-based or functional assay; remark: listed apart in the source

Row | Binder | EC50 cAMP, Alpha Screen (human VPAC2 receptor) [nM] | EC50 cAMP, DiscoveRx (human VPAC2 receptor) [nM] | EC50 cAMP, DiscoveRx (rat VPAC1 receptor [1]) [nM] | adenylate cyclase potency ratio compared to PACAP-27 (rat PAC1 receptor) [fold] | VPAC1/VPAC2 (EC50 ratio) (rat VPAC2 receptor [2]) | cAMP max (rat VPAC2 receptor [2]) | cAMP max (rat VPAC1 receptor [3]) | VPAC1/VPAC2 (ratio of IC50 values) (rat VPAC2 receptor [4]) | EC50 cAMP, DiscoveRx (human PAC1 receptor) [nM] | EC50 cAMP, DiscoveRx (human VPAC1 receptor) [nM] | EC50 cAMP, Alpha Screen [5] [nM] | EC50 cAMP, DiscoveRx (rat VPAC2 receptor [6]) [nM]
1 | Hexanoyl-HSDAVFTDNYTRLLAKLALQKYLQSIKNKRYGGPSSGAPPPS (also called VPAC2-P119) [P119] | 0.42 | 0.34 | 0.07 | > 200 | 32 | 133 | 207 | 47 |  |  |  | 
2 | Hexanoyl-HSDAVFTDNYTRLRKQVAAKKYLQSIKNKRYGGPSSGAPPPS (also called VPAC2-P31) [P31] | 0.13 | 0.11 | 0.44 | > 200 | 174 | 134 | 200 | 546 | 116 | 6 |  | 
3 | HSDAVFTDNYTRLRKQVAAKRYLQSIRNGGPSSGAPPPS (modifications not checked) [P213] |  |  |  |  |  |  |  |  |  |  | 0.24 | 
4 | HSDAVFTDNYTRLRKQVAARRYLQSIRNGGPSSGAPPPS (modifications not checked) [P214] |  |  |  |  |  |  |  |  |  |  | 0.16 | 
5 | MHSDAVFTDNYTRLRKQVAAKKYLQSIKNKRYGGPSSGAPPPS (N-terminal methionine added (M-), also called VPAC2-P104) [P104] | 0.27 |  | 6.75 | > 1000 | 184 | 129 | 195 | 977 |  |  |  | 0.51
6 | Hexanoyl-HSDAVFTDNYTRLR[Aib]QLAA[Aib]KYLQSIKNKGGPSSGAPPPS (ends and bridges not checked) [P292] | 0.23 |  | 1.91 |  | 100 | 79.1 | 124 | 269 |  |  |  | 0.07
7 | Hexanoyl-HSDAVFTDNYTRLR[Aib]QVAA[Aib]KYLQSIKNKRYGGPSSGAPPPS (ends and bridges not checked) [P261] | 0.09 |  | 0.35 |  | 200 | 78.5 | 126 | 363 |  |  |  | 0.04
